The results in this text go back to PMC4584387 (Journal of Medicinal Chemistry, 2015).

Where no end group is shown, it is not given here.

This assay has as its target Full-length human menin (human, UniProt O00255 1-610). Briefly: fluorescence polarisation.

Sequence of Full-length human menin (O00255 whole entry): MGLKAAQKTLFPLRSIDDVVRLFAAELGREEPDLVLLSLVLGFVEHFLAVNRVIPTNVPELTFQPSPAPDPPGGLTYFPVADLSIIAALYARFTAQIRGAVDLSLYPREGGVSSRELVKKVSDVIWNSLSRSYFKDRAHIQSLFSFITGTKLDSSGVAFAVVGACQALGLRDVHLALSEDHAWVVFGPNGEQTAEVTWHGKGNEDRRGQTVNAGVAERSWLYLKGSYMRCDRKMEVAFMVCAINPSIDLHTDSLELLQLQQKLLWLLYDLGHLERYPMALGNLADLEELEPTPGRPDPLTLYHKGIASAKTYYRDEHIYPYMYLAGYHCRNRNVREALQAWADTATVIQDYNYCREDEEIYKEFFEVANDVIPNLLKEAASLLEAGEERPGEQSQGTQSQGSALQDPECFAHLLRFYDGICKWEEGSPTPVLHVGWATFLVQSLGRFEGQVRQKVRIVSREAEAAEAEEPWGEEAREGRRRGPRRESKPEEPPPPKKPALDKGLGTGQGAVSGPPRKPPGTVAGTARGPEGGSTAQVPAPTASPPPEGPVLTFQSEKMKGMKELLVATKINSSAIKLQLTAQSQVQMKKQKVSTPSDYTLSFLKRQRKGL

Regarding SCRWRFPARPGT (peptide, UniProt Q03164 4-15, looked up, also: FITC label, position not given here) [FITC-MBM1 peptide of MLL (residues 4-15)], the binding result is on record as “binds”.
